In publication PMC4351158 (Structure (London, England : 1993), 2015):

System: periplasmic domain of RseA
Assay: Cleavage of 35S-labeled RseA periplasmic domain by DegS variants
Assay type: biochemical, E. coli
Settings: for YYF-stimulated cleavage activity, in words: WT background, compared to wild-type DegS; for YYF-stimulated cleavage activity relative to H198P parental enzyme: H198P background, with YYF, % of H198P parent

B1: I179A: DegS variant I179A (protein)
chain: RSLNPLSTPQFDSTDETPASYNLAVRRAAPAVVNVYNRGLNTNSHNQLEIRTLGSGVIMDQRGYIITNKHVINDADQIIVALQDGRVFEALLVGSDSLTDLAVLKINATGGLPTIPINARRVPHIGDVVLAIGNPYNLGQTITQGIISATGRAGLNPTGRQNFLQTDASINHGNSGGALVNSLGELMGINTLSFDKSNDGETPEGIGFAIPFQLATKIMDKLIRDGRVIRGYIGIGGREIAPLHAQGGGIDQLQGIVVNEVSPDGPAANAGIQVNDLIISVDNKPAISALETMDQVAEIRPGSVIPVVVMRDDKQLTLQVTIQEYPATN
modifications: left off: His6, N-terminal, state not stated
- YYF-stimulated cleavage activity, in words: reduced YYF-stimulated cleavage activity compared to wild-type DegS

B2: Q187A: DegS variant Q187A (protein)
chain: RSLNPLSTPQFDSTDETPASYNLAVRRAAPAVVNVYNRGLNTNSHNQLEIRTLGSGVIMDQRGYIITNKHVINDADQIIVALQDGRVFEALLVGSDSLTDLAVLKINATGGLPTIPINARRVPHIGDVVLAIGNPYNLGQTITQGIISATGRIGLNPTGRANFLQTDASINHGNSGGALVNSLGELMGINTLSFDKSNDGETPEGIGFAIPFQLATKIMDKLIRDGRVIRGYIGIGGREIAPLHAQGGGIDQLQGIVVNEVSPDGPAANAGIQVNDLIISVDNKPAISALETMDQVAEIRPGSVIPVVVMRDDKQLTLQVTIQEYPATN
modifications: left off: His6, N-terminal, state not stated
- YYF-stimulated cleavage activity, in words: reduced YYF-stimulated cleavage activity compared to wild-type DegS

B3: D221A: DegS variant D221A (protein)
chain: RSLNPLSTPQFDSTDETPASYNLAVRRAAPAVVNVYNRGLNTNSHNQLEIRTLGSGVIMDQRGYIITNKHVINDADQIIVALQDGRVFEALLVGSDSLTDLAVLKINATGGLPTIPINARRVPHIGDVVLAIGNPYNLGQTITQGIISATGRIGLNPTGRQNFLQTDASINHGNSGGALVNSLGELMGINTLSFAKSNDGETPEGIGFAIPFQLATKIMDKLIRDGRVIRGYIGIGGREIAPLHAQGGGIDQLQGIVVNEVSPDGPAANAGIQVNDLIISVDNKPAISALETMDQVAEIRPGSVIPVVVMRDDKQLTLQVTIQEYPATN
modifications: left off: His6, N-terminal, state not stated
- YYF-stimulated cleavage activity, in words: reduced YYF-stimulated cleavage activity compared to wild-type DegS

B4: I179A/H198P (protein, UniProt P0AEE3 1-355, looked up, variant I179A H198P)
Serine endoprotease DegS: MFVKLLRSVAIGLIVGAILLVAMPSLRSLNPLSTPQFDSTDETPASYNLAVRRAAPAVVNVYNRGLNTNSHNQLEIRTLGSGVIMDQRGYIITNKHVINDADQIIVALQDGRVFEALLVGSDSLTDLAVLKINATGGLPTIPINARRVPHIGDVVLAIGNPYNLGQTITQGIISATGRAGLNPTGRQNFLQTDASINPGNSGGALVNSLGELMGINTLSFDKSNDGETPEGIGFAIPFQLATKIMDKLIRDGRVIRGYIGIGGREIAPLHAQGGGIDQLQGIVVNEVSPDGPAANAGIQVNDLIISVDNKPAISALETMDQVAEIRPGSVIPVVVMRDDKQLTLQVTIQEYPATN
- YYF-stimulated cleavage activity relative to H198P parental enzyme: ≥ 65%

B5: Q187A/H198P (protein, UniProt P0AEE3 1-355, looked up, variant Q187A H198P)
Serine endoprotease DegS: MFVKLLRSVAIGLIVGAILLVAMPSLRSLNPLSTPQFDSTDETPASYNLAVRRAAPAVVNVYNRGLNTNSHNQLEIRTLGSGVIMDQRGYIITNKHVINDADQIIVALQDGRVFEALLVGSDSLTDLAVLKINATGGLPTIPINARRVPHIGDVVLAIGNPYNLGQTITQGIISATGRIGLNPTGRANFLQTDASINPGNSGGALVNSLGELMGINTLSFDKSNDGETPEGIGFAIPFQLATKIMDKLIRDGRVIRGYIGIGGREIAPLHAQGGGIDQLQGIVVNEVSPDGPAANAGIQVNDLIISVDNKPAISALETMDQVAEIRPGSVIPVVVMRDDKQLTLQVTIQEYPATN
- YYF-stimulated cleavage activity relative to H198P parental enzyme: ≥ 65%
